Laboratory results reported in patent US20250320312A1 (OXITOPE PHARMA B V, published 2025).
Substitutions are numbered along the chain they refer to.

T1: Peptide 4: Biotin-AGGGGSGGGGSGGGGSAAA-Tyr-acid (N-terminal biotin; C-terminal acid)
T1 construct: control peptide without PC
T1 peptide: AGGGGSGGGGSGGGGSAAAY

T2: Peptide 8: Biotin-AEAAAKEAAAKEAAAKEAAAKAAA-Tyr-acid (N-terminal biotin; C-terminal acid)
T2 construct: control peptide without PC
T2 peptide: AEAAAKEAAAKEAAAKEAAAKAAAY

B1: PcOxP_DB01_E11 (scFv, V domains shown)
VH: EVQLLESGGGLVQPGGSLRLSCAASGFTFSDFYMEWVRQAPGKGLEWVAASRNKANDYVTEYADSVKGRFTISRDNSKNTLYLQMNSLRAEDTAVYYCARDYYGSSYWYFDVWGQGTLVTVSS
VL: DIQMTQSPSSLSASVGDRVTITCTASFSLYSSKHKVHYLAWYQQKPGKAPKLLIYGASNRYPGVPSRFSGSGSGTDFTLTISSLQPEDFATYYCAQFYYYPLTFGGGTKVEIK
notes: scFv in periplasmic extract
B2: PcOxP_DB02_A06 (scFv, V domains shown)
VH: B1 VH with F32Q, V59T
VL: B1 VL with F27E, A57L, P62I, Y99S
notes: scFv in periplasmic extract
B3: PcOxP_DB02_D01 (scFv, V domains shown)
VH: B1 VH with T28G, N53H, V59T
VL: B1 VL with F27E, P62I, Y99W
notes: scFv in periplasmic extract
B4: PcOxP_DB01_F10 (scFv, V domains shown)
VH: B1 VH with D31S, F32Y, V59T
VL: B1 VL with F27E, R60G, P62I, Y99T
notes: scFv in periplasmic extract
B5: PcOxP_DB02_A09 (scFv, V domains shown)
VH: B1 VH with F32T, V59T
VL: B1 VL with F27E, Y61Q, P62S, Y99W
notes: scFv in periplasmic extract
B6: PcOxP_DB01_H04 (scFv, V domains shown)
VH: B1 VH with T28A, V59T, S106H
VL: B1 VL with F27E, R60L, Y61Q, P62S
notes: scFv in periplasmic extract
B7: PcOxP_DB02_E10 (scFv, V domains shown)
VH: B1 VH with F32Q, V59Q
VL: B1 VL with F27E, S32G, R60L, Y61Q, P62I
notes: scFv in periplasmic extract
B8: PcOxP_DB02_A11 (scFv, V domains shown)
VH: B1 VH with F32G, K54I, V59T
VL: B1 VL with F27E, P62H
notes: scFv in periplasmic extract
B9: PcOxP_DB02_B12 (scFv, V domains shown)
VH: B1 VH with F32Y, V59T
VL: B1 VL with F27E, A57Q, P62I, Y99S
notes: scFv in periplasmic extract
B10: PcOxP_DB02_D09 (scFv, V domains shown)
VH: B1 VH with D31T, V59T
VL: B1 VL with F27E, P62G, Y99E
notes: scFv in periplasmic extract
B11: PcOxP_DB02_B10 (scFv, V domains shown)
VH: B1 VH with F29E, V59T
VL: B1 VL with F27E, P62I, Y99V
notes: scFv in periplasmic extract
B12: PcOxP_DB01_G11 (scFv, V domains shown)
VH: B1 VH with F32G, A55N, V59T, Y103F
VL: B1 VL with F27E, P62I, Y99S
notes: scFv in periplasmic extract
B13: PcOxP_DB02_C06 (scFv, V domains shown)
VH: B1 VH with F32A, V59T
VL: B1 VL with F27E, S28W, Y61N, P62I
notes: scFv in periplasmic extract
B14: PcOxP_DB01_G01 (scFv, V domains shown)
VH: B1 VH with F29G, A55G, D57S, V59T
VL: B1 VL with F27E, S31G, P62S, Y99S
notes: scFv in periplasmic extract
B15: PcOxP_DB02_C09 (scFv, V domains shown)
VH: B1 VH with F32A, V59T
VL: B1 VL with F27E, S58G, P62I, Y99F
notes: scFv in periplasmic extract
B16: PcOxP_DB01_G09 (scFv, V domains shown)
VH: B1 VH with F32Y, D57T, V59T
VL: B1 VL with F27E, R60L, P62S, Y99S
notes: scFv in periplasmic extract
B17: PcOxP_DB01_H10 (scFv, V domains shown)
VH: B1 VH with F32G, A55N, V59T
VL: B1 VL with F27E, P62F, Y99Q
notes: scFv in periplasmic extract
B18: PcOxP_DB02_C11 (scFv, V domains shown)
VH: B1 VH with F29S, V59Y
VL: B1 VL with F27E, P62I, Y99S
notes: scFv in periplasmic extract
B19: PcOxP_DB02_A10 (scFv, V domains shown)
VH: B1 VH with T28A, V59T
VL: B1 VL with F27E, Y61Q, P62S, Y99A
notes: scFv in periplasmic extract
B20: PcOxP_DB02_E01 (scFv, V domains shown)
VH: B1 VH with F32Q, V59T
VL: B1 VL with F27E, N59G, P62I, Y99S
notes: scFv in periplasmic extract
B21: PcOxP_DB01_F04 (scFv, V domains shown)
VH: B1 VH with D31S, F32Y, A55Y, V59T
VL: B1 VL with F27E, S58V, P62I, Y99R
notes: scFv in periplasmic extract
B22: PcOxP_DB02_C02 (scFv, V domains shown)
VH: B1 VH with V59T, T60V, S105H
VL: B1 VL with F27E, P62I, Y99S
notes: scFv in periplasmic extract
B23: PcOxP_DB02_C01 (scFv, V domains shown)
VH: B1 VH with F32A, V59T
VL: B1 VL with F27E, P62I, Y99S
notes: scFv in periplasmic extract
B24: PcOxP_DB02_B02 (scFv, V domains shown)
VH: B1 VH with F32Y, K54S, A55G, V59T
VL: B1 VL with F27E, Y61L, P62I, Y99W
notes: scFv in periplasmic extract
B25: PcOxP_DB02_D10 (scFv, V domains shown)
VH: B1 VH with F32Q, V59T
VL: B1 VL with S26T, F27E, P62T, Y99S
notes: scFv in periplasmic extract
B26: PcOxP_DB02_F02 (scFv, V domains shown)
VH: B1 VH with V59T
VL: B1 VL with T24F, F27E, Y61G, P62I, Y99S
notes: scFv in periplasmic extract
B27: PcOxP_DB02_B06 (scFv, V domains shown)
VH: B1 VH with F32N, V59T
VL: B1 VL with F27E, P62I, A95T, Y99S
notes: scFv in periplasmic extract
B28: PcOxP_DB02_A12 (scFv, V domains shown)
VH: B1 VH with F32D, V59T, Y103Q
VL: B1 VL with F27E, S58F, P62T, Y99T
notes: scFv in periplasmic extract
B29: PcOxP_DB01_G12 (scFv, V domains shown)
VH: B1 VH with F32G, V59T
VL: B1 VL with F27E, P62F, Y99S
notes: scFv in periplasmic extract

What was measured:
Test in all cases: scFv ELISA
BSA = BSA (UniProt P02769)
Sequence of BSA (P02769 25-607 limits assumed): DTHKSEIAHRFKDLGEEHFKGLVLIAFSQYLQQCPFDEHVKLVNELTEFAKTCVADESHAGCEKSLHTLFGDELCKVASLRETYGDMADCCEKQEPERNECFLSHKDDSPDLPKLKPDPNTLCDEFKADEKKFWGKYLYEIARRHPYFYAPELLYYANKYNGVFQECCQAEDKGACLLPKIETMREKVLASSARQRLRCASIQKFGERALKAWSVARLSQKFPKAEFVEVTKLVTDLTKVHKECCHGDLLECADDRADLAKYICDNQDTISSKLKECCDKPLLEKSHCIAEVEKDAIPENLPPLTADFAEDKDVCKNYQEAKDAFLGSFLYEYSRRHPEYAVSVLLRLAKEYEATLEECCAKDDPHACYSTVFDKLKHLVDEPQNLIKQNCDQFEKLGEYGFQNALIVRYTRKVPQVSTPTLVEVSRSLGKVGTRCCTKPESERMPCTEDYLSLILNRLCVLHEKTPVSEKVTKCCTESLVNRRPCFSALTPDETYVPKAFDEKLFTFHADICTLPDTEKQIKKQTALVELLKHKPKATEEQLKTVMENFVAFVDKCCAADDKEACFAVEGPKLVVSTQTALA

[1] = target: Peptide 1: Biotin-…-[Tyr(PC)]-acid
[2] = target: Peptide 5: Biotin-…-[Tyr(PC)]-acid
[3] = target: T1, Peptide 4: …
Experimental: (§1) For ELISA analysis of scFv binding, 96-well polystyrene plates were coated with Peptide 1, 4, 5, 8 or 100 μL BSA (10 μg/mL) in PBS at 4° C. overnight. Plates were washed three times with PBS-Tween and blocked with 100 μL 1% BSA-TBS for 1 hour at room temperature. 96-well streptavidin coated plates were coated with 100 μL biotinylated PC-peptides (1 μg/mL) in PBS for 1 hour at room temperature.
(§2) All plates were washed three times with PBS-Tween before 40 μL aliquots of PPE were added to assay plates along with 50 μL 10% BSA, and plates were incubated for 1 hour at room temperature. After washing, […] HRP conjugated anti-V5 in 5% BSA was added, and plates were incubated at room temperature for 30 mins. Plates were washed and 100 μL TMB substrate was added. Color was left to develop at room temperature before the reaction was stopped with 100 μL 1N HCl. The amount of scFv bound to each well was quantitated from absorbance measurement at 450 nm (OD450).

[4] = target: T2, Peptide 8: …
Experimental: as §1, §2

Binder	OD450 (BSA)	OD450 [1]	OD450 [2]	OD450 [3]	OD450 [4]
B1	0.09 OD450	0.62 OD450	0.73 OD450	0.05 OD450	0.06 OD450
B2	0.1 OD450	1.12 OD450	1.07 OD450	0.05 OD450	0.05 OD450
B3	0.09 OD450	0.31 OD450	0.35 OD450	0.05 OD450	0.05 OD450
B4	0.09 OD450	0.68 OD450	0.98 OD450	0.05 OD450	0.05 OD450
B5	0.11 OD450	0.98 OD450	1.3 OD450	0.05 OD450	0.04 OD450
B6	0.11 OD450	2.01 OD450	1.92 OD450	0.07 OD450	0.07 OD450
B7	0.09 OD450	0.52 OD450	0.79 OD450	0.04 OD450	0.04 OD450
B8	0.09 OD450	0.64 OD450	0.89 OD450	0.04 OD450	0.04 OD450
B9	0.1 OD450	2.33 OD450	1.34 OD450	0.05 OD450	0.04 OD450
B10	0.11 OD450	0.16 OD450	0.44 OD450	0.05 OD450	0.04 OD450
B11	0.08 OD450	0.67 OD450	1.03 OD450	0.04 OD450	0.04 OD450
B12	0.09 OD450	0.99 OD450	1.32 OD450	0.06 OD450	0.06 OD450
B13	0.11 OD450	0.54 OD450	1.03 OD450	0.05 OD450	0.05 OD450
B14	0.09 OD450	0.58 OD450	1.33 OD450	0.06 OD450	0.05 OD450
B15	0.1 OD450	0.69 OD450	1.01 OD450	0.05 OD450	0.04 OD450
B16	0.11 OD450	0.92 OD450	1.4 OD450	0.06 OD450	0.05 OD450
B17	0.08 OD450	0.6 OD450	1.39 OD450	0.06 OD450	0.06 OD450
B18	0.1 OD450	0.12 OD450	0.24 OD450	0.05 OD450	0.04 OD450
B19	0.11 OD450	0.42 OD450	0.9 OD450	0.05 OD450	0.04 OD450
B20	0.11 OD450	0.43 OD450	0.63 OD450	0.05 OD450	0.1 OD450
B21	0.09 OD450	0.36 OD450	0.57 OD450	0.05 OD450	0.05 OD450
B22	0.1 OD450	0.35 OD450	0.62 OD450	0.05 OD450	0.05 OD450
B23	0.1 OD450	1.03 OD450	1.47 OD450	0.06 OD450	0.05 OD450
B24	0.11 OD450	0.49 OD450	0.98 OD450	0.05 OD450	0.05 OD450
B25	0.1 OD450	0.69 OD450	1.01 OD450	0.05 OD450	0.04 OD450
B26	0.11 OD450	0.37 OD450	0.6 OD450	0.05 OD450	0.05 OD450
B27	0.11 OD450	0.35 OD450	0.79 OD450	0.07 OD450	0.04 OD450
B28	0.06 OD450	0.2 OD450	0.27 OD450	0.05 OD450	0.06 OD450
B29	0.09 OD450	0.75 OD450	1.33 OD450	0.07 OD450	0.06 OD450
